Measurements reported in IntAct's records for PubMed 10602480.

B1: Death-associated protein kinase 3 (Rattus norvegicus (Rat)), O88764 (parent)
chain: MSTFRQEDVEDHYEMGEELGSGQFAIVRKCQQKGTGMEYAAKFIKKRRLPSSRRGVSREEIEREVSILREIRHPNIITLHDVFENKTDVVLILELVSGGELFDFLAEKESLTEDEATQFLKQILDGVHYLHSKRIAHFDLKPENIMLLDKHAASPRIKLIDFGIAHRIEAGSEFKNIFGTPEFVAPEIVNYEPLGLEADMWSIGVITYILLSGASPFLGETKQETLTNISAVNYDFDEEYFSSTSELAKDFIRRLLVKDPKRRMTIAQSLEHSWIKVRRREDGARKPERRRLRAARLREYSLKSHSSMPRNTSYASFERFSRVLEDVAAAEQGLRELQRGRRQCRERVCALRVAAEQREARCRDGSAGLGRDLRRLRTELGRTEALRTRAQEEARAALLGAGGLKRRLCRLENRYDALAAQVAAEVQFVRDLVRALEQERLQAECGVR
partner: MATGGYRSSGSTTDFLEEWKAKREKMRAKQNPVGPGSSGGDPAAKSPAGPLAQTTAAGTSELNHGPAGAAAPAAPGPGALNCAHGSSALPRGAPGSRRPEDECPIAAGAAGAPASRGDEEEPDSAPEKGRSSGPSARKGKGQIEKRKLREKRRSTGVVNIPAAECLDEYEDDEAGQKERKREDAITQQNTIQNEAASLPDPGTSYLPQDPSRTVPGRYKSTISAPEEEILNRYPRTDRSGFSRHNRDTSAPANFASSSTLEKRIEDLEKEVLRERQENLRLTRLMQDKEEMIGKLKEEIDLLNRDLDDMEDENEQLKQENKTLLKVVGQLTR

Variants of: B1
Conditions: with pawr_rat Pawr

Variant	effect of a mutation on the interaction
K42A	disrupting interaction
